Data taken from article PMC7862519.

Experiments:
[1] = target: D2 (his-tagged domain 2 of extracellular endo-alpha-(1->5)-L-arabinanase 1) (Geobacillus stearothermophilus T-6) (UniProt B3EYN2); experiment: reflectometric porous-silicon aptasensor (real-time EOT); conditions: 5'-amino, Selection buffer: 50 mM K2HPO4, 150 mM NaCl, pH 7.4, flow 30 uL/min for 1 h, temperature not stated, elution with 1 M imidazole
[2] = target: D2N (D2 without his tag) (Geobacillus stearothermophilus T-6) (UniProt B3EYN2); experiment: as above; conditions: 1 uM protein, 5'-amino, Selection buffer: 50 mM K2HPO4, 150 mM NaCl, pH 7.4, flow 30 uL/min for 1 h, temperature not stated, elution with 1 M imidazole

Sequence “GCTATGGGTGGTCTGGTTGGGATTGGCCCCGGGAGCTGGC [anti-his tag aptamer 6H7]” has a binding signal (relative dEOT/EOT0 x10^-3) ([1]; 0.25 uM protein, 3D-printed microfluidic) of 1.6, a binding signal (relative dEOT/EOT0 x10^-3) ([1]; 0.5 uM protein, 3D-printed microfluidic, reused sensor) of 2.3 and a binding signal (relative dEOT/EOT0 x10^-3) ([1]; 1 uM protein, 3D-printed microfluidic, released by 1 M imidazole) of 4. For the same sequence, the binding signal (relative dEOT/EOT0 x10^-3) ([1]; 1 uM protein, PDMS microfluidic, signal partly non-specific adsorption) was 3.2, the binding signal (relative dEOT/EOT0 x10^-3) ([2]; PDMS microfluidic, ascribed to non-specific adsorption) was 1.7 and the binding signal (relative dEOT/EOT0 x10^-3) ([2]; 3D-printed microfluidic) was 0.8.
